According to US6068841:

Target: mouse Fas on mouse hepatic parenchymal cells (mouse) (UniProt P25446)

Substance “anti-mouse Fas antibody (Jo-2; product of Phar-Mingen Co.)” has a Viability (%) of mouse hepatic parenchymal cells (ALAMAR BLUE fluorescence) of 99%.
